Experimental data reported in patent US10479836B2, “Method for treating pulmonary hypertension with interleukin-5 receptor antibody” (University of Toyama, priority 2015, dated 2019).
Substitutions are numbered along the chain they refer to. “Also recorded” adds a separate entry of the source.

T1: mouse FcγRIIb (Mus musculus, UniProt P08101)
T1 construct: purchased R&D Systems, Inc
T1 sequence (P08101 30-330): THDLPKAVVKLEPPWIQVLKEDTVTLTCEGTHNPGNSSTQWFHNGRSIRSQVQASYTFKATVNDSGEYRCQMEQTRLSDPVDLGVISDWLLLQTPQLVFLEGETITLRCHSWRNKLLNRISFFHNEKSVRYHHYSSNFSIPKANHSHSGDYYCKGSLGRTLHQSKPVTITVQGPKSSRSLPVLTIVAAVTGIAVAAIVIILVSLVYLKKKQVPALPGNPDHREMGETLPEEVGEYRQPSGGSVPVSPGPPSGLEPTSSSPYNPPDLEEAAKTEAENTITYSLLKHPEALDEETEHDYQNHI

T2: mouse FcγRIV (Mus musculus, UniProt A0A0B4J1G0)
T2 construct: purchased R&D Systems, Inc
T2 sequence (A0A0B4J1G0 21-249): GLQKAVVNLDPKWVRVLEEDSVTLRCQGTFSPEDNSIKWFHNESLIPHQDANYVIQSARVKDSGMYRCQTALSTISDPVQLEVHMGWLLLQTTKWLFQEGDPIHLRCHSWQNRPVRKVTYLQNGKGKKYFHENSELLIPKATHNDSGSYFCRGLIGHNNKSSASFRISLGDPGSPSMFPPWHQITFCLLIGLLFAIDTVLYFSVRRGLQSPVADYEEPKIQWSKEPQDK

T3: mouse FcγRIII (Mus musculus, UniProt P08508)
T3 construct: purchased R&D Systems, Inc
T3 sequence (P08508 31-261): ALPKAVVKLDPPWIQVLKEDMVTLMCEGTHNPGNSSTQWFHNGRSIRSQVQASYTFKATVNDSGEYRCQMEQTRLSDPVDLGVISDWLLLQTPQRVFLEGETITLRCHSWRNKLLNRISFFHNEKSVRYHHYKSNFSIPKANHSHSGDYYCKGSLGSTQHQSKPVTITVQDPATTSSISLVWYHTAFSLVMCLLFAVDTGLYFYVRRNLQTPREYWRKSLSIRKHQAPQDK

T4: mouse FcγRI (Mus musculus, UniProt P26151)
T4 construct: purchased R&D Systems, Inc
T4 sequence (P26151 25-404): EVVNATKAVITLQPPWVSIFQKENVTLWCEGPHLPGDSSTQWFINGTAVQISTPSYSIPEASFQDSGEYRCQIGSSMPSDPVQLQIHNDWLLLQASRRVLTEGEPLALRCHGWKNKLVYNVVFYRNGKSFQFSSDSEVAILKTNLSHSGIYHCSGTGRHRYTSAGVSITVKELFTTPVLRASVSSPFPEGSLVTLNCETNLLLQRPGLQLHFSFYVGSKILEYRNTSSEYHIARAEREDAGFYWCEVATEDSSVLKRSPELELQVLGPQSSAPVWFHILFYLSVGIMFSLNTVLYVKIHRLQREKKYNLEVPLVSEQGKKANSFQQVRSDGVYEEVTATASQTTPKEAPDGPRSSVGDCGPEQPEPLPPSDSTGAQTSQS

B1: H7-2: core fucose-deficient H7 chimeric antibody, human IgG1, with Cys at VL position 87 replaced with Ser (antibody, V domains shown)
VH: EVQLQQSGAELGKPGTSVKLSCKVSGYNIKNTYIHWVNQRPGKGLEWIGRIDPANGNPIYAEKFKNKATLTADTSSNTAYMQLSQLKSDDTAIYFCAMHRGHSMGPGPYVMDAWGQGASVTVSS
VL: DIQMTQSPASLSASLGETVTIECRTSEDIYNGLAWYQQKPGKSPQLLIYNANSLHTGVPSRFSGSGSGTQYSLKINSLQSEDVASYSCQQYSNYPFTFGSGTKLEIK
B2: H7 ratIgG2a: parent anti-IL-5R rat monoclonal antibody H7, rat IgG2a type (Hitoshi et al.) (antibody, V domains shown)
VH: B1 VH
VL: B1 VL with S87C

Columns and labels:
[1] = tested on: IL-33-induced vascular wall thickening (SMA-positive cells); test: IL-33-induced vascular wall thickening, immunofluorescent staining of lung tissue; format: in vivo, mouse; conditions: IL-5+/+ mice, 100 μg antibody i.p. five times; lung tissue day 21
Protocol: (§1) In an experimental system similar to that of Example 3, in order to confirm the inhibitory effects of anti-IL-5R antibodies and anti-IL-5 neutralizing antibodies on vascular wall thickening, 100 μg of the H7 (CS) hIgG1 (DF) (H7-2) antibody, the H7 (CS) hIgG1 (N297A) (H7-4) antibody, an anti-IL-5 antibody (ligand-neutralizing antibody, clone name: TRFK5), the anti-DNP antibody KM8808, the anti-DNP antibody KM6161, or rat IgG (clone name: HRPN) was intraperitoneally administered to each IL-5^+/+ mouse a total of five times (3 consecutive days (three times) from two days before the first rIL-33 administration day (day 0), once on the second rIL-33 administration day (day 7), and once on the third rIL-33 administration day (day 14)) (FIG. 15). Then, on day 21, lung tissues were resected and evaluated by FCM and immunofluorescent staining.
In the immunofluorescent staining, the tissues were sliced into 30 μm, and slides were prepared and then stained with an Alexa 488-conjugated anti-SMA antibody (1A4) (manufactured by Abcam plc) and an Alexa 647-conjugated anti-Siglec-F antibody (E50-2440). The nuclei of the cells were stained with Hoechst 33342 (manufactured by Life Technologies Corp.). Here, the degree of the growth of SMA-positive cells (primary media-constituting cells) was observed.

Y16 cells [2] = test: IL-5 signal inhibition: rIL-5-dependent Y16 growth inhibition (WST-1); format: cell-based, mouse; conditions: rIL-5 5 units/mL, 24 hours
Protocol: Whether or not the various recombinant chimeric antibodies prepared in Example 8 would have the function of inhibiting IL-5 signals was studied by using Y16 growth inhibition as an index. 2×10^3 Y16 cells were cultured for 24 hours in the presence or absence of rIL-5 (5 units/mL) after addition of the Cys substitution-containing core fucose-unlinked H7 recombinant chimeric antibody H7 (CS) hIgG1 (DF) (H7-2), the N-linked sugar chain-deficient H7 recombinant chimeric antibody H7 (CS) hIgG1 (N297A) (H7-4), and the anti-DNP antibodies KM8808 and KM6161 at a concentration of 0.01, 0.1, 1, or 10 μg/mL. 24 hours later, these antibodies were evaluated for their ability to inhibit growth using Premix WST-1 Cell Proliferation Assay System (manufactured by Takara Bio Inc.). The culture time after addition of the reagent of the cell growth assay kit was set to 1 hour.

[3] = tested on: eosinophils (CD45-positive, Gr1-negative, Siglec-F-positive cells); test: IL-33-induced increase of lung eosinophils, FCM of lung cell suspension; format: in vivo, mouse; conditions: IL-5+/+ mice, 100 μg antibody i.p. five times
Protocol: as §1
In the FCM, 1×10^6 cells in the lung cell suspension were stained with a PE-Cy7-conjugated anti-CD45 antibody (30-F11), an APC-conjugated anti-Gr1 antibody (RB6-8C5), and a PE-conjugated anti-Siglec-F antibody (E50-2440) (all manufactured by BD Biosciences). CD45-positive, Gr1-negative, and Siglec-F-positive cells were regarded as eosinophils, and the influence of antibody administration was observed.

Y16 cells [4] = test: ADCC activity against Y16 cells with human PBMC effector cells (LDH release); format: cell-based, mouse; conditions: 4 hrs, 0.0001-1000 ng/mL (control antibodies 1000 ng/mL), FIG. 13
Protocol: The H7 recombinant chimeric antibodies prepared in Example 8 were evaluated for their ADCC activity against Y16 cells using frozen human peripheral blood mononuclear cells (PBMCs) (manufactured by AllCells) as effector cells. The frozen human PBMCs were shake-cultured (37° C., 5% CO2, overnight) in RPMI1640 medium containing 5% FBS. The Y16 cells (target cells) and the human PBMCs (effector cells) were washed with ADCC assay medium (RPIM1640 containing 5% dialyzed FBS) and adjusted to cell densities of 2×10^5 cells/mL and 3×10^6 cells/mL, respectively. The cells were washed twice with a medium and then suspended into cell densities of 4×10^5 cells/mL. Each chimeric antibody adjusted to a final concentration of 0.0001, 0.001, 0.01, 0.1, 1, 10, 100, or 1000 ng/mL, the target cells (2×10^4 cells/well), and the effector cells (5×10^5 cells/well) were added in this order at 50 μL/well to a 96-well U-bottom plate. The control antibodies used were the rtDNP-1 hIgG1 (DF) antibody (KM8808) and the rtDNP-1 hIgG1 (N297A) antibody (KM6161) of Example 10 adjusted to a final concentration of 1000 ng/mL. The plate was centrifuged (500 rpm, 5 min) and then left standing in an incubator (37° C., 5% CO2, 4 hrs). The plate was centrifuged (1500 rpm, 5 min) to recover a supernatant at 50 μL/well into a 96-well Flat-bottom plate (manufactured by Sumitomo Bakelite Co., Ltd.). Lactate dehydrogenase (LDH) activity in the supernatant was detected using CytoTox 96 Non-Radioactive Cytotoxicity Assay (manufactured by Promega Corp.). Absorbance at 490 nm was measured using a plate reader SPECTRA MAX 340 PC384 (manufactured by Molecular Devices, LLC). The ADCC activity (%) was calculated according to the following equation using background-corrected measurement values. Cytotoxicity=[[Absorbance of the sample]−[Absorbance derived from spontaneous release from the target cells and the effector cells]]/[[Absorbance derived from total release from the target cells]−[Absorbance derived from spontaneous release from the target cells]]

[5] = tested on: mouse IL-5Rα-expressing cell Y16; test: Antigen binding activity of chimeric antibodies on Y16 cells by FCM; format: cell-based; conditions: FIG. 12
Protocol: The chimeric antibodies prepared in Example 8 were evaluated for their antigen binding activity using a mouse-derived cell line Y16 expressing IL-5R. The Y16 cells were washed with SM (staining medium containing 2% FCS, 0.05% NaN3, and 1 mM EDTA in PBS). Then, Mouse BD Fc Block (manufactured by Becton, Dickinson and Company) was added thereto at a concentration of 5 μg/mL, and the mixture was left standing at 4° C. for 30 min. The cells were inoculated at a cell number of 1×10^5 cells/well to a 96-well U-bottom plate, and each chimeric antibody adjusted to a final concentration of 10000, 2500, 625, 156, 39, 10, 2.4, or 0.6 ng/mL was added thereto, followed by reaction at 4° C. for 60 min. The rat/human chimeric control antibodies used were rtDNP-1 hIgG1 (DF) antibody (KM8808) and rtDNP-1 hIgG1 (N297A) antibody (KM6161). The nucleotide sequences and amino acid sequences of the variable regions of each isotype control antibody are shown in SEQ ID NOs: 29 to 34. After washing of the cells with SM, Goat F(ab′)2 Anti-Human IgG PE (γ chain specific) (manufactured by Southern Biotech) diluted 500-fold with SM was added thereto, followed by reaction at 4° C. for 60 min. After washing of the cells with SM, the cells were resuspended in 50 μL of SM. Fluorescence intensity was measured by FCM (flow cytometer FACS Canto II (manufactured by Becton, Dickinson and Company)). The data was analyzed using FlowJo 7.65 (manufactured by Tomy Digital Biology Co., Ltd.) to calculate a Geomean value at each concentration.

mouse FcγRIIb = target: T1, mouse FcγRIIb; test: Biacore steady state affinity for mouse FcγRIIb; format: binding; conditions: Biacore T-200, Steady State Affinity mode
Protocol: (§2) The various H7 chimeric antibodies prepared in Example 8 and the parent antibody H7 rat IgG2a-type antibody were evaluated for their affinity for mouse FcγR using Biacore T-200 (manufactured by GE Healthcare Japan Corp.). An anti-tetra His mouse antibody (manufactured by Qiagen N.V.) was immobilized with 8000 RU as a guideline onto CM5 sensor chip using an amine coupling kit (all manufactured by GE Healthcare Japan Corp.). The coupling buffer used was 10 mM sodium acetate (pH 4.5). His tag-fused mouse FcγRI, IIb, III, and IV proteins (all manufactured by R&D Systems, Inc.) each dissolved at 2 μg/mL in HBS-EP(+) were captured as ligands at 2 μL/min for 30 sec. Then, each antibody serially diluted into concentrations of […] was added thereto as an analyte by the multicycle method. The flow rate was 5 μL/min, and the contact time and the dissociation time were both set to a condition of 240 sec. The analysis was carried out using Biacore T200 Evaluation software on the Steady State Affinity mode. A rise in binding activity against FcγRI and FcγRIV involved in in vivo mouse effector activity was observed by the alteration of the H7 constant region from rat IgG2a type to hIgG1 type.

mouse FcγRIV = target: T2, mouse FcγRIV; test: Biacore steady state affinity for mouse FcγRIV; format: binding; conditions: Biacore T-200, Steady State Affinity mode
Protocol: as §2

mouse FcγRIII = target: T3, mouse FcγRIII; test: Biacore steady state affinity for mouse FcγRIII; format: binding; conditions: Biacore T-200, Steady State Affinity mode
Protocol: as §2

mouse FcγRI = target: T4, mouse FcγRI; test: Biacore steady state affinity for mouse FcγRI; format: binding; conditions: Biacore T-200, Steady State Affinity mode
Protocol: as §2

Molecule	inhibition of IL-33-induced vascular wall thickening (immunofluorescent staining) [1]	Y16 growth inhibiting ability, H7-2 and H7-4 compared (Y16 cells [2])	inhibition of Y16 cell growth (IL-5 signal-inhibiting function) (Y16 cells [2]; antibody 0.01-10 μg/mL, FIG. 14)	inhibition of IL-33-induced increase in the number of eosinophils ([3]; FCM day 21, FIG. 16)	abundance ratio of eosinophils, in absence of IL-33 (PBS) ([3]; PBS instead of IL-33, lung cells day 21, FCM)	abundance ratio of eosinophils, in presence of IL-33 ([3]; rIL-33 days 0, 7, 14, lung cells day 21, FCM)	ADCC activity against Y16 cells (Y16 cells [4])	binding ability to Y16 cells, H7-1 and H7-2 compared [5]	Affinity KD for mouse FcγRIIb (mouse FcγRIIb)	Affinity KD for mouse FcγRIV (mouse FcγRIV)	Affinity KD for mouse FcγRIII (mouse FcγRIII)	Affinity KD for mouse FcγRI (mouse FcγRI)
B1	inhibited most strongly; also recorded: vascular wall thickening inhibitory effect superior to H7-4 or the IL-5 ligand-neutralizing antibody	equivalent inhibiting ability	inhibited the growth of the Y16 cells in an antibody concentration-dependent manner	inhibited almost completely; also recorded: superior in eosinophil growth-inhibiting function	0.24%	1.58%	exhibited antibody concentration-dependent ADCC activity	slight rise in binding ability				
B2									no binding	very weak	no binding	very weak
